Series [1] concerns the molecule itself. The experiment in a line: single molecule photobleaching counting (smPB, TIRF microscopy); living HEK293 cells with low expression; bleaching steps of confined spots at the cell surface counted and fitted to a binomial distribution (eGFP folding probability 72%); CaM-eGFP counted in spots positive for mCherry-TRPV5, in presence and absence of extracellular Ca2+.

The target of series [2] is T1, CaM agarose resin (UniProt P62157 1-149).
T1 construct: calmodulin coupled to agarose; Immobilised on agarose by the supplier; source: bought: Sigma Aldrich (CaM agarose resin)
The experiment in a line: pull-down; competition: 0-100 µM TRPV5 peptide added to the CaM agarose pull-down of GFP-TRPV5 lysate; TRPV5 band semi-quantified and fitted (non-linear sigmoidal) against log peptide concentration; Ca2+ concentration not stated. The settings on record: both partners purified.

Where no end group is shown, it is not given here.

B1: GFP-TRPV5 (natural protein, rabbit, UniProt Q9XSM3 1-730, looked up)
chain: MGACPPKAKGPWAQLQKLLISWPVGEQDWEQYRDRVNMLQQERIRDSPLLQAAKENDLRLLKILLLNQSCDFQQRGAVGETALHVAALYDNLEAATLLMEAAPELAKEPALCEPFVGQTALHIAVMNQNLNLVRALLARGASVSARATGAAFRRSPHNLIYYGEHPLSFAACVGSEEIVRLLIEHGADIRAQDSLGNTVLHILILQPNKTFACQMYNLLLSYDEHSDHLQSLELVPNHQGLTPFKLAGVEGNTVMFQHLMQKRKHVQWTCGPLTSTLYDLTEIDSWGEELSFLELVVSSKKREARQILEQTPVKELVSFKWKKYGRPYFCVLASLYILYMICFTTCCIYRPLKLRDDNRTDPRDITILQQKLLQEAYVTHQDNIRLVGELVTVTGAVIILLLEIPDIFRVGASRYFGQTILGGPFHVIIITYASLVLLTMVMRLTNMNGEVVPLSFALVLGWCSVMYFARGFQMLGPFTIMIQKMIFGDLMRFCWLMAVVILGFASAFHITFQTEDPNNLGEFSDYPTALFSTFELFLTIIDGPANYSVDLPFMYCITYAAFAIIATLLMLNLFIAMMGDTHWRVAQERDELWRAQVVATTVMLERKMPRFLWPRSGICGYEYGLGDRWFLRVENHHDQNPLRVLRYVEAFKCSDKEDGQEQLSEKRPSTVESGMLSRASVAFQTPSLSRTTSQSSNSHRGWEILRRNTLGHLNLGLDLGEGDGEEVYHF
notes: TRPV5, rabbit, cloned into a pcDNA5 vector with an N-terminal GFP tag; also called eGFP-TRPV5; source: HEK293, transfected, in lysate; in living cells for single molecule photobleaching; not shown: GFP, N-terminal, kept
In general, stoichiometry N refers to a count of units in the complex or per binding partner. On to B1, for which the “stoichiometry N” value in series [1] is 4.

B2: TRPV5 distal helix peptide (peptide)
peptide: {Biotin‑C6}-QSSNSHRGWEILRRNTLGHL
notes: TRPV5 distal C-terminal helix; the limits are counted from W702, the residue changed in the printed W702A peptide; also called distal peptide; distal TRPV5 peptide; source: synthetic peptide, bought: EMC microcollections GmbH
As a reminder, the IC50 is the point on the concentration scale where inhibition reaches its midpoint. A higher IC50 goes with weaker potency in that assay. B2 displayed an IC50 in series [2] of 5.2 µM.
